We go through 1 protein from PMC3728920, “In situ structural analysis of the Yersinia enterocolitica injectisome” (eLife, 2013).

The data set deals with the molecule itself. Briefly: cryo-EM structure; cryo-electron tomography and sub-volume averaging (~3 nm) of purified YscC (0.2 mg/ml) reconstituted into liposomes of E. coli polar lipids at 5:1 lipid-to-protein ratio; oligomers isolated beforehand in DDM by sucrose gradient, MonoQ and Superose 6 gel filtration. On the technique in general: In gel filtration, larger molecules generally elute earlier.

B1: YscC (outer membrane secretin of the Yersinia enterocolitica injectisome) (natural protein)
chain: QELDWLPIPYVYVAKGESLRDLLTDFGANYDATVVVSDKINDKVSGQFEHDNPQDFLQHIASLYNLVWYYDGNVLYIFKNSEVASRLIRLQESEAAELKQALQRSGIWEPRFGWRPDASNRLVYVSGPPRYLELVEQTAAALEQQTQIRSEKTGALAIEIFPLKYASASDRTIHYRDDEVAAPGVATILQRVLSDATIQQVTVDNQRIPQAATRASAQARVEADPSLNAIIVRDSPERMPMYQRLIHALDKPSARIEVALSIVDINADQLTELGVDWRVGIRTGNNHQVVIKTTGDQSNIASNGALGSLVDARGLDYLLARVNLLENEGSAQVVSRPTLLTQENAQAVIDHSETYYVKVTGKEVAELKGITYGTMLRMTPRVLTQGDKSEISLNLHIEDGNQKPNSSGIEGIPTISRTVVDTVARVGHGQSLIIGGIYRDELSVALSKVPLLGDIPYIGALFRRKSELTRRTVRLFIIEPRIIDEGIAHHLALGNGQDLRTGILTVDEISNQSTTLNKLLGGSQCQPLNKAQEVQKWLSQNNKSSYLTQCKMDKSLGWRVVEGACTPAQSWCVSAPKRGVL
notes: YscC, secretin of the Ysc injectisome, Yersinia enterocolitica E40; full-length yscC with a stop codon amplified from the pYVe40 plasmid and cloned into pBAD/mycHisA (pMA6); The signal peptide is probably cut on export (surmise); The introduction cites 12-15 subunits for secretin rings; also called secretin YscC; YscC oligomers
Take B1: the binding result was “binds”.
